Data on one substance can be found in PMC12597282.

This test deals with E546N mutant human inducible NOS oxygenase/FMN (oxyFMN) construct (human) (UniProt P35228). Description: cross-linking; DSBU 250 uM with 5 uM iNOS oxyFMN (co-purified with CaM), 20 mM HEPES, 100 mM NaCl, 1 mM CaCl2, pH 7.5, 30 min, room temperature; SDS-PAGE, dimeric band digested in gel; LC-MS/MS on timsTOF (DDA-PASEF, then PRM-PASEF for quantitation), lysine-lysine cross-links only.
UniProt P35228, sequence (P35228 71-723 E546N): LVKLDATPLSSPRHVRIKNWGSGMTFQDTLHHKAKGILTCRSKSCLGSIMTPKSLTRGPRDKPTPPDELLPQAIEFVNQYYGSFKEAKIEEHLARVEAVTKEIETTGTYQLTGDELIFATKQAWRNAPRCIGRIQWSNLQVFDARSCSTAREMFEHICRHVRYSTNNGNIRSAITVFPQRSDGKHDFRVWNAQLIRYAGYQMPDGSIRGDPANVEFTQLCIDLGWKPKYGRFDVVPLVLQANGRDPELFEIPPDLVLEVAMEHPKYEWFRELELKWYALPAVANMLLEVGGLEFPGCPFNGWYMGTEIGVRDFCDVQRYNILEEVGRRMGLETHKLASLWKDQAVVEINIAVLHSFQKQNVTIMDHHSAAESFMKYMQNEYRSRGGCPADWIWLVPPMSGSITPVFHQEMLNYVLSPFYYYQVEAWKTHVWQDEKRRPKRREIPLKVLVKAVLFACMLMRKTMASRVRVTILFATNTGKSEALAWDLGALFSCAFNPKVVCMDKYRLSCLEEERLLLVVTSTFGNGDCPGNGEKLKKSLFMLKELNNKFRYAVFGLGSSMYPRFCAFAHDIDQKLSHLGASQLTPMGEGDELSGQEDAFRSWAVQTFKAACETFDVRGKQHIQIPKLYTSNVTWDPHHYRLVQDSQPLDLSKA

For the substance “calmodulin (from UniProt P0DP23 1-149) (natural protein)”, the log2 fold-change (E546N/wt) of the abundance of cross-link 75–516 CaM-helix (intra) (log2(E546N/wt)) is -1.04.
